Our source for the reading and block of peak Kv1.3 currents by culture supernatant (patch-clamp) values is patent US20250213627A1, “RECOMBINANT MICROORGANISM-BASED METHODS AND COMPOSITIONS FOR TREATMENT OF DISEASE” (Baylor College of Medicine, priority 2021, published 2025).

The target of experiment [1] is rat IgG. As to the kind of experiment: ELISA positive control, wells coated with 1 µg/ml rat IgG, anti-rat IgG-HRP and TMB.
Experiment [2] deals with Kv1.3 potassium channel (species not stated for this experiment). Put plainly: cell-based or functional assay.

As for anti-rat IgG-HRP (antibody), the reading at 450 nm in experiment [1] amounted to 3.3 OD 450 nm.

As to “HA-tagged ShK-235 secreted by LrS235-HA (peptide)”, the block of peak Kv1.3 currents by culture supernatant (patch-clamp) in experiment [2] worked out at 25%.
